Holding throughout (experiment): Der pI substrate assay with FRET peptides (fluorescence, Km, kcat/Km)
Common to all, as to assay type: biochemical, house dust mite
Settings in all cases: other: purified Der pI; peptides SEQ ID Nos. 1-76; pH 8.25

Substrate in data set [1]: CC(C)CC[C@H](NC(=O)[C@H](C)NC(=O)[C@H](Cc1ccc(-c2ccccc2)cc1)NC(=O)c1ccccc1N)C(=O)N[C@@H](CC(=O)O)C(=O)N[C@@H](Cc1ccc(O)c([N+](=O)[O-])c1)C(=O)N[C@@H](CC(=O)O)C(N)=O
As for the experimental part: (§1) Using the general techniques described above, the following compounds were prepared and assayed as potential substrates against Der pI purified as described above.
(§2) Each mixture of 20 compounds in the libraries of the apparatus described herein was screened at a concentration of 1.0 μM per compound in an assay against the cysteinyl protease Der pI.
(§3) Plate assays were carried out in 96 well plate format, using 0.1 ug of Der pI per 100 μL assay volume in each well and using 20 μM of the substrate. All assays were performed in Assay Buffer (AB; 50 mM potassium phosphate, pH 8.25 containing 1 mM ethylenediaminetetraacetic acid (EDTA) and 1 mM dithiothreitol (DTT). The Der pI enzyme is pre-activated by addition of DTT and this in incubated at room temperature for 5 min. prior to initiation of the assay. As an example for the screening methodology, each well contains a 5 μL of a 20 μM solution of the test compound in DMSO, 10 μL of a 200 μM aqueous solution of the substrate, 2, and 85 μL of Der pI in AB is added to initiate the reaction. Enzyme activity is monitored by fluorescence using 320 nm for excitation and 420 nm for the emission wavelengths using a Labsystems Fluroskan Ascent machine. Kinetic measurements were carried out using a Hitachi F-4500 Fluorescence Spectrophotometer.

Substrate in data set [2]: CC(C)[C@H](NC(=O)c1ccccc1N)C(=O)N[C@@H](C)C(=O)N[C@@H](CCCCN)C(=O)N[C@@H](CO)C(=O)N[C@@H](Cc1ccc(O)c([N+](=O)[O-])c1)C(=O)N[C@@H](CC(=O)O)C(N)=O
As for the experimental part:
as §1, §2, §3

Substrate in data set [3]: CCCC[C@H](NC(=O)[C@H](C)NC(=O)[C@@H](NC(=O)[C@H](CCCCN)NC(=O)c1ccccc1N)C(C)C)C(=O)N[C@@H](CO)C(=O)N[C@@H](Cc1ccc(O)c([N+](=O)[O-])c1)C(=O)N[C@@H](CC(=O)O)C(N)=O
As for the experimental part: as §1, §2, §3

Substrate in data set [4]: CCCC[C@H](NC(=O)[C@H](C)NC(=O)[C@@H](NC(=O)c1ccccc1N)C(C)C)C(=O)N[C@@H](CO)C(=O)N[C@@H](Cc1ccc(O)c([N+](=O)[O-])c1)C(=O)N[C@@H](CC(=O)O)C(N)=O
How it is done: as §1, §2, §3

Substrate in data set [5]: CC(C)CC[C@H](NC(=O)[C@H](C)NC(=O)[C@H](Cc1ccc(-c2ccccc2)cc1)NC(=O)c1ccccc1N)C(=O)N[C@@H](CO)C(=O)N[C@@H](Cc1ccc(O)c([N+](=O)[O-])c1)C(=O)N[C@@H](CC(=O)O)C(N)=O
As for the experimental part:
as §1, §2, §3

Substrate in data set [6]: CC(C)[C@H](NC(=O)c1ccccc1N)C(=O)N[C@@H](C)C(=O)N[C@@H](Cc1cccnc1)C(=O)N[C@@H](CO)C(=O)N[C@@H](Cc1ccc(O)c([N+](=O)[O-])c1)C(=O)N[C@@H](CC(=O)O)C(N)=O
How it is done:
as §1, §2, §3

Substrate in data set [7]: CCCC[C@H](NC(=O)[C@H](C)NC(=O)[C@@H](NC(=O)[C@H](Cc1ccc(-c2ccccc2)cc1)NC(=O)c1ccccc1N)C(C)C)C(=O)N[C@@H](CO)C(=O)N[C@@H](Cc1ccc(O)c([N+](=O)[O-])c1)C(=O)N[C@@H](CC(=O)O)C(N)=O
How it is done:
as §1, §2, §3

Substrate in data set [8]: CC(C)CC[C@H](NC(=O)[C@H](C)NC(=O)[C@H](Cc1ccc(-c2ccccc2)cc1)NC(=O)c1ccccc1N)C(=O)N[C@@H](Cc1cccnc1)C(=O)N[C@@H](Cc1ccc(O)c([N+](=O)[O-])c1)C(=O)N[C@@H](CC(=O)O)C(N)=O
As for the experimental part:
as §1, §2, §3

Substrate in data set [9]: CC(C)CC[C@H](NC(=O)[C@H](C)NC(=O)[C@H](Cc1ccc(-c2ccccc2)cc1)NC(=O)c1ccccc1N)C(=O)N[C@H](C(=O)N[C@@H](Cc1ccc(O)c([N+](=O)[O-])c1)C(=O)N[C@@H](CC(=O)O)C(N)=O)C(C)(C)C
How it is done:
as §1, §2, §3

Substrate in data set [10]: CC(C)CC[C@H](NC(=O)[C@H](C)NC(=O)[C@H](Cc1ccc2ccccc2c1)NC(=O)c1ccccc1N)C(=O)N[C@@H](CO)C(=O)N[C@@H](Cc1ccc(O)c([N+](=O)[O-])c1)C(=O)N[C@@H](CC(=O)O)C(N)=O
How it is done: as §1, §2, §3

Substrate in data set [11]: CC(C)CC[C@H](NC(=O)[C@H](CCCCN)NC(=O)[C@@H](NC(=O)c1ccccc1N)C(C)C)C(=O)N[C@@H](CO)C(=O)N[C@@H](Cc1ccc(O)c([N+](=O)[O-])c1)C(=O)N[C@@H](CC(=O)O)C(N)=O
How it is done: as §1, §2, §3

Substrate in data set [12]: CC(C)CC[C@H](NC(=O)[C@H](C)NC(=O)[C@H](CCC(N)=O)NC(=O)c1ccccc1N)C(=O)N[C@@H](CO)C(=O)N[C@@H](Cc1ccc(O)c([N+](=O)[O-])c1)C(=O)N[C@@H](CC(=O)O)C(N)=O
As for the experimental part:
as §1, §2, §3

B1: Der pI (Dermatophagoides pteronyssinus) (protein)
chain: TNACSINGNAPAEIDLRQMRTVTPIRMQGGCGSCWAFSGVAATESAYLAYRNQSLDLAEQELVDCASQHGCHGDTIPRGIEYIQHNGVVQESYYRYVAREQSCRRPNAQRFGISNYCQIYPPNVNKIREALAQTHSAIAVIIGIKDLDAFRHYDGRTIIQRDNGYQPNYHAVNIVGYSNAQGVDYWIVRNSWDTNWGDNGYGYFAANIDLMMIEEYPYVVIL
notes: tissue SmithKline-Beecham, U.K (crude mite extract); host or cells: crude house dust mite extract
With B1, the Km came out at 5.0 µM in [1]; 14 µM in data set [2]; 15 µM in [3]; 12 µM in [4]; 2.5 µM in data set [5]; 10 µM in [6]. Further, the Km in [7] is 10 µM; in [8], 4 µM; in [9], 4 µM; in data set [10] it was 15 µM; in data set [11], 35 µM; in [12], 12 µM.

As a reminder, the Km is the concentration of substrate that gives half-maximal velocity.

Source of the values: patent US6528275B1, “Substrates and inhibitors of proteolytic enzymes” (Peptide Therapeutics Limited, priority 1996, dated 2003).
